Columns and labels:
MKK4, P45985 = biological target: T1, MKK4, P45985
T1 chain: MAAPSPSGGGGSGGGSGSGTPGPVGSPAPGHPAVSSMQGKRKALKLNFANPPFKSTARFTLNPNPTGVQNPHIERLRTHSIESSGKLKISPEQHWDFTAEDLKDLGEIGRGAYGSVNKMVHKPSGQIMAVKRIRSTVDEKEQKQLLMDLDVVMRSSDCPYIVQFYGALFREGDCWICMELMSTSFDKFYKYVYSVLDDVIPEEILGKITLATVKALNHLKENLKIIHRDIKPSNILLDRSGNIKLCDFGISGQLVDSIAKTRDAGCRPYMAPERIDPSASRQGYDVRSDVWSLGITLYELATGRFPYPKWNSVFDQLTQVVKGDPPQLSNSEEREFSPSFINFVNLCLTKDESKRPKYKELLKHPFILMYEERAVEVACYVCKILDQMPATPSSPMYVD

MKK6, P52564 = biological target: T2, MKK6, P52564
T2 chain: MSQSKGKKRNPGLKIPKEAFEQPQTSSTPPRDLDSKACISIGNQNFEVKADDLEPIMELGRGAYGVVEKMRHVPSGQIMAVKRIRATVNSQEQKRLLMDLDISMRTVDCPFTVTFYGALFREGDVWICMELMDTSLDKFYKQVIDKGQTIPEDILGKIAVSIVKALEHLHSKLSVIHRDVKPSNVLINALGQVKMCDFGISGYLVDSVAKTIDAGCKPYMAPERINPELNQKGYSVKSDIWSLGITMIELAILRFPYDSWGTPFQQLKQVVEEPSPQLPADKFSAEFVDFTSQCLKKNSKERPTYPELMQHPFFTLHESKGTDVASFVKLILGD

MEK2, P36507 = biological target: T3, MEK2, P36507
T3 chain: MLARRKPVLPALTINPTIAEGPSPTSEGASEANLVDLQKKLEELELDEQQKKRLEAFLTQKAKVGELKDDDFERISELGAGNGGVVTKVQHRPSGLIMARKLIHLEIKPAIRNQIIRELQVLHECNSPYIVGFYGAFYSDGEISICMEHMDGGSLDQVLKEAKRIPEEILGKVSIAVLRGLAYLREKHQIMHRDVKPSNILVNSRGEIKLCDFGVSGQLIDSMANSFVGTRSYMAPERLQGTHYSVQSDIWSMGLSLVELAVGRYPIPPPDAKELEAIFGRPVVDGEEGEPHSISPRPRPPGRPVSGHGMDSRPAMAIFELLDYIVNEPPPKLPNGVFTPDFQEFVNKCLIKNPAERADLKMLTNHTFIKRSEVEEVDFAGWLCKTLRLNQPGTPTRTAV

B1: FLAG-tagged RC Kinase polypeptide (human RC Kinase variant 1, SEQ ID NO: 7, with a FLAG epitope at its amino terminal) (protein)
chain: SKKQQLLDILMSSMPKPERHAESLLDICHDTNSSPTDLMTVTKNQNIILQSISRSEEFDQDGDCSHSTLVNEEEDPSGGRQDWQPRTEEFSTSHMKYSGRSIKFLLPPLSLLPTRSGVLTIPQNHKFPKEKERNIPSLTSFVPKLSVSVRQSDELSPSNEPPGALVKSLMDPTLRSSDGFIWSRNMCSFPKTNHHRQCLEKEENWKSKEIEECNKIEITHFEKGQSLVSFENLKEGNIPAVREEDIDCHGSKTRKPEEENSQYLSSRKNESSVAKNYEQDPEIVCTIPSKFQETQHSEITPSQDEEMRNNKAASKRVSLHKNEAMEPNNILEECTVLKSLSSVVFDDPIDKLPEGCSSMETNIKISIAERAKPEMSRMVPLIHITFPVDGSPKEPVIAKPSLQTRKGTIHNNHSVNIPVHQENDKHKMNSHRSKLDSKTKTSKKTPQNFVISTEGPIKPTMHKTSIKTQIFPALGLVDPRPWQLPRFQKKMPQIAKKQSTHRTQKPKKQSFPCICKNPGTQKSCVPLSVQPTEPRLNYLDLKYSDMFKEINSTANGPGIYEMFGTPVYCHVRETERDENTYYREICSAPSGRRITNKCRSSHSERKSNIRTRLSQKKTHMKCPKTSFGIKQEHKVLISKEKSSKAVHSNLHDIENGDGISEPDWQIKSSGNEFLSSKDEIHPMNLAQTPEQSMKQNEFPPVSDLSIVEEVSMEESTGDRDISNNQILTTSLRDLQELEELHHQIPFIPSEDSWAVPSEKNSNKYVQQEKQNTASLSKVNASRILTNDLEFDSVSDHSKTLTNFSFQAKQESASSQTYQYWVHYLDHDSLANKSITYQMFGKTLSGTNSISQEIMDSVNNEELTDELLGCLAAELLALDEKDNNSCQKMANETDPENLNLVLRWRGSTPKEMGRETTKVKIQRHSSGLRIYDREEKFLISNEKKIFSENSLKSEEPILWTKGEILGKGAYGTVYCGLTSQGQLIAVKQVALDTSNKLAAEKEYRKLQEEVDLLKALKHVNIVAYLGTCLQENTVSIFMEFVPGGSISSIINRFGPLPEMVFCKYTKQILQGVAYLHENCVVHRDIKGNNVMLMPTGIIKLIDFGCARRLAWAGLNGTHSDMLKSMHGTPYWMAPEVINESGYGRKSDIWSIGCTVFEMATGKPPLASMDRMAAMFYIGAHRGLMPPLPDHFSENAADFVRMCLTRDQHERPSALQLLKHSFLERSH
other
  RC Kinase activity (in vitro kinase assay with labelled ATP, SDS-PAGE, autoradiography): it has the ability to phosphorylate other RC Kinase polypeptides
  phosphorylating activity (in vitro kinase assay, autoradiography after SDS-PAGE): RC Kinase was able to phosphorylate itself
MKK4, P45985
  RC Kinase activity (in vitro kinase assay with labelled ATP, SDS-PAGE, autoradiography): it has the ability to phosphorylate other RC Kinase polypeptides, MKK4, and MKK6
  phosphorylating activity (in vitro kinase assay, autoradiography after SDS-PAGE): RC Kinase was able to phosphorylate itself and MKK4
MKK6, P52564
  RC Kinase activity (in vitro kinase assay with labelled ATP, SDS-PAGE, autoradiography): it has the ability to phosphorylate other RC Kinase polypeptides, MKK4, and MKK6
  phosphorylating activity (in vitro kinase assay, autoradiography after SDS-PAGE): showed only minor activity against MKK6
MEK2, P36507
  phosphorylating activity (in vitro kinase assay, autoradiography after SDS-PAGE): no detectable activity against MEK2

From US20080261903
